Reference: the domain aggregation screens of Martell et al. (2025)

Experiment: soluble fraction after stress (log2 fold change); higher = more stays soluble; pooled small domains, quantitative proteomics
Conditions: stress: pH 4
In short: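 Following acid stress at pH 4, the amount of each small protein domain still soluble was measured in pooled custom libraries by high-throughput quantitative proteomics. Its fold change, on a log2 scale, is higher when more of the domain stayed soluble. This fold change is taken as a measure of aggregation propensity.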

Sequence	soluble fraction (log2)
HMEKERYDTGIGELNRVLGGGLVKGSLILISGDPGIGKSTLLLQTANNISKKYGKVLYVSGEESEEQIKIR	-0.722
HMTNKQEYAYQWLKSSIIENKIKPSTLLVERHLSEMLHISRTPVRTALMRLADEGFVVISPGRGMVVA	-0.0492
HMQRDDMQIDRLIQIVFLLLSRNNLTAKQLAEELGVSTRTIYRDINILSVAGIPITSQKGYGGGLSLLQG	-0.261
HMTPKVTVPDVTGQTFSSAKQILESLGFTVKQQGSTDETDQVIDQNPTSGEADKGATITLTTKSS	-0.139
HMPMTDYQLIRSNRRTIALQITRDARVVVRAPLYASEADIRRFVESHRAWIESHLDRQRARTD	0.201
HMEIVQVIAQNIQDLLDKHKISVSELSGYLGISRQTLTNYLKTTSTIDSVQLVKIADFFNIPAEYLLKDH	-0.659
HMVAGHLQEKNGYFYIVLNYTNHEGKRKSKWITTGLTVKGNKKRAQDLLQEARKTFVPDIPT	0.22
HMNPSPYLRRHLSGDWGDLDEDDRRSNDAALASGEARLLSSYQVDPDLKLWIITEWDRSVTTLLLPSE	≥ 0.43
HMRGLIEPLSQRELEVLMLMARGQSNAHIADQLNISENTIKWHGRNIFGKLGVSNRTEAVITSQEMGMLAT	-0.711
HMGGEKLPAPVAGTLLRYSVAEGARVSEGQTVIILESMKMELEINTPKAGVIHFLAAVGAQVAEGDTLAEI	-0.171
HMDDHLRLSDNERISAMSALATHFTEGRLDTSEFDERTLAASQAKSRGDLRPLFDDLPGQLPAALSP	-0.125
HMGTMKGFVDGSSVHLRSGPSLSESIRAKVVKGQTLYITERRGDWYRATVHGGGEGWIHTSLVKLAG	0.261
HMINLNEVLANFQKSYPNLAGFKYDQGMDALVYEGNYIRLNGYMLSRINPTLFSMSPDDIFTYLKNGF	-1.22
HMADPLQLLEQQRQDYIQAVTEYLNSHPNAKPIWDVMKKDAGYGDMKLTDIPLGILKKLYITLT	-0.137
HMLTEREQDTLNFIRQYIDEQGRSPLVSEIAKGLGIKSQGTTHRYIQALVDAGLLERHVGRTRGLHLT	-0.352
HMAVDAASSTIGKNVEVSVANEKGDYENFNGKVKSASIKDGVVYLELELKDTGEIKEVPYSSLTKIT	0.355
HMEKIELKTVIPENLKKKRLDFALSELFPEHSRSRIQSWIKEGSVMVNSKNYRQRDLVDAGDVVEINTEQK	0.321
HMAAEEAFPGGRIVQNAEENRLQILFDEIPGEDVRAALKSHGFRWSPKNKAWQRQLTQNAEYDARRILGI	-0.033
HMSDIDHIAGRRIRQARLNAGMTLETLASQAGISKALLSKIENSKVSSPLATFSKISKVLGVPLSDLLKE	0.204
HMDVAWDAIKAKLKEVVDAEDKAHPLNDDQIVKALGESGITIARRTIAKYRDLLGIPPARKRKA	0.0412
HMSFNTNENKNLLWELMNKHNLFKDIDNQHYQEVQKLFEEEIVFISNNNKSLDLVEQNKKFLSSIITKLNK	-1.2
HMKWIEILKSKDGNYALLQDEKDTQFVVASGYNPDAAEDQKWGHGSYFIYWNNKENKAEMLMNAIDLFRYR	-1.34
HMTPDLSEFKERLRQILPGEPIEVRTANDGIVLSGTVTSIAALDRALDLAERYAPDKVSNLLSVG	0.365
HMTKTFDSPEDADNDVLAKTLFQIFGVQSVYLKENFVTITKSNSVGWHTLMEKTGHTLEEHLKF	0.0576
HMTRHIQVNDSIASTPIEDVYFSTRTYNALLNNGISVIGDLSKYTHDDLYASFQGLGRAGVLEIEAYLRQD	-1.32

Sequence	soluble fraction (log2)
HMSSIRDVVPEGLLSDREKLVLVLAFDRDLDGPDMARTLGISANTVRVLKARALKKLRQAGIQP	-0.34
HMQQIEIEEPITVKNLSAVAGLKASEIIAKLMKLGVMSTINQVMERQHAEEIAGEYGFELVVK	-0.154
HMSNIQLVENLYRLRKAHHYTQQEISDLLNISRQAYSNYETSKRTPDLDSLMRLADIYGVSLDQLVNHP	-0.347
HMVVDEQRIQTLVSAAEQNSSDPVPRVTLGNLYFDAEQFEEAVKWYEQALALDPRNVNVSTDLGVGYYY	-0.451
HMVKSYEVPDVSNLTVLEAEAKLQEMGFEIDEEQKEISSSDIESGRVVKTSPQAGSKRKEGAIITLYVSSG	-0.433
HMNLQAYQSVLDKLNEEYGTTFRFPTEEELHEVGLTNTVDPRTATVSATEFEKYMRPIAERISQANL	-0.315
HMVGQIISNARKQEKMTQSELAEKVGTNKTYISRIEKGVIEPGVGLFFRIIDALGLKIEIVKP	-0.362
HMDEQKNREIALIENIQREDLNPYEKALGIRNLMDKYGLTQEEVSKRIGKSRSAVSNTVRILNLAPDVL	-0.0309
HMDESLIEEAKAMILQMKIEGSVRVRSNGLLEFRNPLFGSVYGRSVEELQEKLNKKVREQKSRI	0.194
HMRDYKTHLQEVLQSKGEVNIWYKLIDEKGPDHNKKFVMQVGIDSKILGFGEGKSKKEAEQVAARKALDNI	-0.317
HMTEELQDMESRIIEAAKRVFVRKGYEATKMSDIALEVGLGRTALHYYFRTKEMLFDAIFGRLMGV	-0.594
HMHVYQSLVTDRVVPGGGYRTTEAILSTEAWRNTLLEQAKRELIGVRNKYASLTELAKVWTAIDTVT	-0.249
HMSSSDYDVYNKAINLMLNLLKEPKSIEEVTASLNITKSQAITWINRALNEGKIIKTNRPVRYVVNN	0.0142
HMQIIEVPYSEFLKKLESGQISEVSRDSYQIVFTDRSQPPIIYKTGLMEDPGLVDKMQEAGVTFTSP	-0.228
HMVVVMNADAEADEIKRVKWNLEQMLFRTQVIYGVKRIVIGAIGDQREVDLSEIEQMPKVDKIVRISK	-1.39
HMKGIVFTEFLDLVEERFGLEMVDAIISQSKLESKGVYTSIGTYSFSELLQLLQNLKIQTGISIDNLLLI	-1.51
HMVAGHLQEKKGYFYMVLTYRDHEGKRKSKWLPTGLTIKGNKKRAQDLLQDARKNFVPDIPT	≥ 0.43
HMEPTIGTATVTSGSRLNMRSAKSTSASVVTRIPSGATVGVISYASDWSKVTYNGYTGYVSSPYISMNG	-0.108
HMEVVVPEDLDAALQQASRAQSFFSSLSYTHKKEYVAWINEAKRAETRAMRIQKTITMLESGQRGH	0.28
HMATPKYMELVRWINEQIESKNLVPGQKMYSENTLKEMFGVSRQTVRHAIGVLENEGVIRRIQGSGTYIN	0.163
HMSEDTYNTLTKGTRVYNGVDYGAKYGYNPLYYFLNYNDLRIAYGADPAKLVEHYALFGIKENRVANRQIT	-0.247
HMDAVTPVLSRIRDARFKRMVLPGDEIEISVTLIDTIGKFFNLSGQIRNKDKISLTVNFALALV	0.0905
HMAGRKMMVMANNLSVRKSANSLSEKLADLSRGDTVEYISSTNGWNKVRYKGQIGYVSSYYLKDTGEEVE	0.216
HMKKLTNKQIIFFAEKLAHHSDFASKYSKVGESYEEFAIRLEKELNTPQKVEFYSSYLEKVGFK	-0.78
HMQGEAMQETVKKLDAFLQDNSVSMSALARALGVSPSLISQFRSGSYKGDSQAIAAKINSYIDNHNKKSK	0.0656

Sequence	soluble fraction (log2)
HMPLDYQELRNISPQAARQAILQILKANKGNVSQTARMLGITRKTVYKAMAKREAGNLDDGSRAPK	0.265
HMKYVDYYATLGVARDADLATITKAYRKLARQTHPDLNQGADNEARFKAAAEAYATLKHPEKRAAYDELGQ	0.117
HMDNWAALLSEREVQVSRLVANGASNKEIADHLAITERTVKAHLTAVFEKLGVRDRLQLSLRVNGL	-1.64
HMKLFGTPGSPFARKVRIVLEEKRIPHEYIIERGSAPGSRVPQYNPLGKVPTLVLDDGRGLYDSPVIVEYL	-0.108
HMDDPEISQEQRQQLFRTAKEHFGASGNDVLKEILADHGRDSTVKMPVSVFAEIMGDLLKRALD	-0.121
HMEMNPLDIQNKAAELAQQWLQLPVGERQKQMAAVRTSNPNLHAMAKQKMEEMRSQAESQGRQSLSQP	-0.0586
HMDVRLAKVYMLPANPYLRFIEFDDGTHGKFRAKPGKFGLGSVVKVKREDGDMYTLEGNYDGKDRL	0.152
HMNLDMVINKIGIVTEDIKQDKIGEVKVLGKRWSAYSNTELKKDEKVKILSIDGVKLKVEKI	0.413
HMHPDALTEREREVLSLLADGLSNREIAARLVLALGTVKWYISVIYSKLGVTRRTQAIARARELHLV	-0.41
HMESVQWSVFPSAKYVTIISFDPTTSGGSATAKFKVSDEARSKGFRFRIEAAIGEGIMRSEMYVIEE	-0.0704
HMGVISRVITFWQNGFTVDDGPLRAFDDPANMAFMESIGRGEAPAELAPKTRTQRVNINLVQRHEPYSAPK	-0.934
HMDEFQLTPREQEILGLLVKGYTYKRIASELNLSYATVNRHVSNVYVKLRVHSVNEAVALAVRKGL	-0.543
HMHKAVVGPPNARKLAVTYGFKRWPALVFFRDGKYLGAVDGLRLWADLVREADEIMHSEPHYP	0.22
HMNRKILVLLAGKEQITDNVSVMQSIHRYAFINTATINKAQHEILIEKEEIRQEALTLIHEFLK	0.0276
HMDLANLQNGQTLPLQRDVEVISIPFGKTISLSEDSVVSIMQAKGSSVSVAYEGRLYLIEGSNLDALGLEP	-0.888
HMGSALLEAGADDAGQRLDQWLAAKLGPSISRSRVQALIKQGAVLVGGKPAGEAKRKLVAGDVVSVALPEP	0.133
HMVNVTEAIDLENGTGKLSGTFNHEPKSAEEIIFLLKIDTNKWKLSQYWNKQMGDHWRVSALISQI	-1.54
HMSDPSRKADFIAALSSLGGSAGNGKLREQLGWDEPTYDAVKQTLLDEGAITNGRGRGGSVALAG	0.146
HMEKGWYKLGQDSYYVDDDGKIHKGWLELDGKKYYFDQEGKMVTGTVNIDGKDYTFNEKGELYVS	-0.029
HMGLNNVSDILRLDFNSFKKKFDKLPSGYKNSVVEQAALMIKSGELDSIKIKDYIEKSMGIELDI	-0.0393
HMNRETAISIYRILHILEEPYKEVFTLRTLGDLSYREIADIFGKQENWARVTYHRAKLKIREALVS	-0.71
HMVGMDRYFKIKNIKDSSAAFERDYILHFLKENDWMVSKTAQMIGLERTTLYKKIKQLGLASMLEN	-0.386
HMEKAKVPSVIGMTEANAKRTIRDAGFKVGRVTRVESEAYDKGKVIEQQYEAGSELEKKKPISIVVSKGKK	0.152
HMTTVRLNATVPPELALQRLDRVARELFPEYSRNRLQQWIRSGELLVNGSPSGVRDKVPLGAELAVAANLE	-0.343
HMNDPIESLTPREREVLTLMAEGRTNAAIAAQLVVTEGAVEKHTQHIFAKLGLLPDSAVHRRVKAVLALLS	-0.637
